Test: yeast display, Sf9 membrane polyspecificity reagent, FACS + sequencing; frameworks hold sequencing errors
Outline: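 Genes from sorted yeast were amplified by colony PCR, read by MiSeq 2 × 250 sequencing and filtered on CDR length. These cells carried a synthetic nanobody library in Saccharomyces cerevisiae BJ5465 and were sorted by FACS into low and high (top ~1%) gates on anti-HA and streptavidin fluorescence. Polyreactivity is labelled according to the gate of origin.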

| Sequence | polyreactivity (PSR sort gate) |
| --- | --- |
| QVQLVESGGGLVQAGGSLRLSCAASGFTFRIYAMGSYRQAPGKERELVAAISWAGGSTFYADSVKGRFTISRDNAKNTVYLQMNSLKPEDTAVYYCAADTAFHYDYWGQGTQVTVSS | low polyreactivity |
| QVQLVESGGGLVQAGGSLRLSCAASGSIFFQNAMGWYRQAPGKESEFVAAITWRGASTYYADSVKGRFTISRDNATNTVYLQMNSLKPEDTAVYYCAARQHYYYGWYYYWGQGTQVTVSS | high polyreactivity |
| QVQLVESGGGLVQAGGSLRLSCAASGSIFDYNAMGGYRQAPGKERELVAAISSGGSTYYADSVKGRFTISRDNAKNTVNLQMNSLKPEDTAVYYCAVKFWVVIQFDYWGQGTHVTVSS | low polyreactivity |
| QVQLVESGGGLVQAGGSLRLSCAASGRIFPYYAKRWYRQAPGKERELVAAITTRGGSTYDADSVKGRFTISRDNAKNTVYLQMNSLKPEDTAVYYCAAVTFGRMEYCGQGTQVTVSS | low polyreactivity |
| QVQLVESGGGLVQAGGSLRLSCAASGITFSYALGWYRQAPGKERELVAGITTSGGSTYADSVKGRFTISRDNAKNTVYLQMNSLKPEDTAVYYCAADRSAVQFSAFLEYDYWGQGSQVTVSS | low polyreactivity |
| QVQLVESGGGLVQAGGSLRLSCAASGRNFYRYGMGWYRQAPGKERELVAAITYGGGSTYADSVKGRFTISRDNAKNTVYLQMNSLKPEDTAVYYCNARSRYRHYGFDYWGQGTQVTVSS | high polyreactivity |
| QVQLVESGGGLVQAGGSLRLSCAASGFIFNLYAMGWYRQAPGKERELVAAISSGGGTSYADSVKGRFTISRDNAKNTDYLQMNSLKPEDTAVYYCAKRSGTYPFNFRFDYWGQGTQVTVSS | high polyreactivity |
| QVQLVESGGGLVHAGGSLRLSCAAYGRTFKYNAMGWNRQAPGKERELVAAISSRGGSTYYADSVKGRFTISRDNAKNTVYLQMNSLKPEDTAVYYCAIATSSSEYGYDYWGQGTQVTVSS | high polyreactivity |
| QVQLVESGGRLVQEGRSLRLSCAASGSIFSRYAMGWYRQAPRKERELVAAITWSGGSTYYADSVKGRFTISRDNAKNNVYLQMNSLKPDDTAVYYCAAVGYAPYNHRYDSWGQGTQVTVSS | low polyreactivity |
| QVQLVESGGGLVQAGGSLRLSCAASGYIFYYYAMGWYRQAPGKESELVAAISSTVSTNYADSVKGRFTISRDNAKNTVYLQMNSLKPEDSAVYYCAAAQRVNHVWYDYWGQGTQVTVSS | low polyreactivity |
| QVQLVESGGRLVQAGGSLRLSCAASGFIFWSYAMGWYRQARGKERELVAAISWSGGRTYYADSVKGRFTISRDNAKNTVYLQMNSLKPEDTAVYYCAAVKRYSSQYPALDYWGQGTQVTVSS | high polyreactivity |
| QVQLVESGGGLVQAGGSLRLSCAASGFIFVYNDMGWYRPAPGKERELVAAISTSGGSTYYADSVKGRFTISRDNAKNTVYLQMNSLKPEDTAVYYCAAGPSYYPFFWPDFEYWGQGTQVTVSS | high polyreactivity |
| QVQLVESGGGLVQAGGSLRLSCAASGLISHNNAMGWYRQAPGKEREFVAAITTTGSSTYYADSVKGRFTISRDNEKNTVYLQMNSLKPEDTAVYYCAAESVPSRSEMDYWGQGTQVTVSS | low polyreactivity |
| QVQLVESGGGLVQEGGRLRLSCAASGRIISINAMGWYRQAPGKERELVAAITRGGTTYADSVKGRFTISRDIAKNTVYLHMNRLKPEDPAVYYCNARTGRSPSGFRYWGQGTQVTVSS | high polyreactivity |
| QVQLVESGGGLVQAGGSLRLSCAASGRNFGYNAMGWYRQAPGKERELVAAITTSGGSTYYADSVKGRFTISRDNAKNTVYLQMNSLKPEDTAVYYCARDSLQVLYPYASDDSWGQGTQVTVSS | low polyreactivity |
| QVQLVESGGGLVQAGGSLRLSCAAYYAMGWYRQAPGKERELVAAISSTGRTNYADSVKGRFTISRDYAKNTVYLQMNSLKPEDTAVYYCNAGDPSGMDYWGQGTQVTVSS | low polyreactivity |
| QVQLVESGGGLVQAGGSLRLSCAASGSIFGYNAMGWSRQAPGKERELVAGITSGTSTNYADSVKGRFTISRDNAKNTVYLQMNSLKPEDTEVYYCARTSYRFYRKRYYWGQGTQVTVSS | high polyreactivity |
| QVQLVESGGGLVQAGGSLRLSCAASGLTFFRYARGWYRQAPGKERELVATITGRGGSTYYADSVKGRFTISRDNAKNTVYLQMNSLKPEDTAVYYCAAYYSRFRYLHRDYWGQGTQVTVSS | high polyreactivity |
| QVQLVESGGGLVQAGGSLRLSCAASGRTFSRNAMGWYRQAPGKERELVATITSDGSTNYADSVKGRFTISRDNAKNTVYLQMNSLKPEDTAVYYCAAGEQSSIIGAHDYWGQGTQVTVSS | low polyreactivity |
| QVQLVESGGGLVQAGGSLRLSCAASGRTFRVYAMGWYRQAPGKERELVAAIRTDDSTNYADSVKGRFTISRDNAKNTVYLQMNSLKPEDTAVYYCNAEGQFTWLGRRRHKFEYWGQGTQVTVSS | low polyreactivity |
| QVQLVESGGGLVQAGGSLRLSCAASGRIFTSNAMGWYRQAPGKEREFVAAITKRGGRTYYADSVKGRFTISRDNAKNTVYLQMNSLLPEDTAVYYCAAGATGTSYYGGDYWGQGTQVTVSS | high polyreactivity |
| QVQLVESGGGLVQAGGSLRISCASSGFTIWGYTMVWYRQAPGKERELVAAITSTGSTYYADSVKGRFTISRDNAKNTVYLQMNSLKPEDTAVYYCAAESYYGYDYWGQGTQVTVSS | low polyreactivity |

| Sequence | polyreactivity (PSR sort gate) |
| --- | --- |
| QVQLVESGGGLVQAGGSLRLSCAASGSIFQHYAMGWYRQAPGKEREFVAAISGRGGGTYYADSVKGRFTISRDNAKNTVYLQMNSLKPEDTAVYYCAADYRGSYWRYYYWGQGTQVTVSS | high polyreactivity |
| QVQLVESGRGLVQAGGSLRLSCAASGSILYSYAMGWYRQAPGKERELVAAISSSGGTNYAASVKGSFTISRDNAKNTVYLQMNSLKPEDTEVYYCNADVLDGGYDYWGQGTQVTVSS | low polyreactivity |
| QVQLVESGGGLVQAGGSLRLSCAASGSTFYYNTMGWYRQAPGKDRELVAAITWTGGSTYYADSVKGRFTISRDNAKNTVYLQMNSLKPEDTAVYYCAAVNWRDEIYDYWGQGTQVTVSS | low polyreactivity |
| QVQLVESGGGLVQAGGSLRLSCAASGSIFDDYAMGWYRQAPGKERELVAAISWSGGSTYYADSVKGRFTISRDNAKNTVYLQMNSLKPEDTAVYYCAAYDYDYLYGEYYWGQGTQVTVSS | low polyreactivity |
| QVQLVESGGGLVQAGGSLRLSCAASGSIFVTNAMAWYSQAPGKERELVAAISWRGGSTYYADSVKGRFTISRDNAKNTVYLQMNSLKPEDTAVYYCNTYHPYWGSGFDYWGQGTEVTVSS | low polyreactivity |
| QVQLVDSGGGLVQAGGSLRLSCAASGRISSQYAMGWYRQAPGKERELVAAISTSGDRTYYADSVKGRFTISRDNAKNTVYLQMNSLKPEDTAVYYCAKDGPYTYGRDISEYWGQGTQVTVSS | low polyreactivity |
| QVQLVESGGGLVQAGGSLRLSCAASGFTFKYYAMGWYRQAPGKERELVAAIRRSAGSTNYADSVKGRFTISRDNAKNTVYLQMNSLKPEDTAVYYCNTVGTRQPMDYWGQGTLVTVSS | high polyreactivity |
| QVQLVESGGGLVQAGGSLRLSCASSGFTFIYYAMGWYRQAPGKERELVAAISGSGSTYYADSVKGRFTISRDNAKNTVYLQMNSLKPEDTAVYYCAADVTGGRKYDYWGQGTQVTVSS | low polyreactivity |
| QGQLVESGGGLVQAGGSLRVSCAASGYTFDSYAMGLYRQAPGKERELFAAITNGGSTYYADSVKGRFTISRDNAKKTVYLQLNSLKPEDTAVYYCATDDDQLDYLYDYWGPGTQVTVSS | low polyreactivity |
| QVQLVESGGGLVQAGGSLRLSCAASGSTFYRNALGWYRQAPGKERELVARISSRGGRTSYADSVKGRFTISRDNAKNTVYFQMNSLKPEDTAVYYCAADYYVNRIQRYDYWGQGTQVTVSS | high polyreactivity |
| QVQLVESGGGLVQAGGSLRLSCDASGFIIARNAMGWYRQAPGKERELVAAISASGGRTYYADSVKGRFTISRDNAKNTVYLQMNSLKPEDTAVYYCAARRDGRSGSYNYWGQGTQVTVSS | high polyreactivity |
| QVQLVESGGGLVQAGGSLRLSCAASGSTFYVYAMGWYRQAPGKERELVAAIDRGSSTYADSVKGRFTISRDNAKNTVYLQMNSLKPEDTAVYYCAAEKERDEEYDYWGQGTQVTVSS | low polyreactivity |
| QVHLVDSGGGLVQAGGSLRLSCAASGIIFTGNAMGWYRQAPGKERELVAGITGSGGNTYYADSVKGRFTISSDNAKNTVYLQMNCLKPEDTAVYYCAARRHIFLLIIWSGRVDYWGQGTQVTVSS | low polyreactivity |
| QVQLVESGRGLVQAGGSLRLSCAASGRIFKRYTMGWYRPAPGKETELVAGITFSGGSTYYADSVKGRFTISRDNAKNTVYLQMNSLKREDTAVYYCAADDAYYTYQYDYWGQGTQVTVSS | low polyreactivity |
| QVQLVDSAGGLVQAGGSLRLSCAASGITFGYYAMGWYRQAPGKERELVAAITSSGSTYYADSVKGRFTISRDNAKNTVYLQMNSLNPEDTAVYYCAARSWYSKYYYWGQGTQVTVSS | high polyreactivity |
| QVQLVESGGGLVQAGGSLRLSCAASGSISADDVMGWYRQAPGKERELVAAISVSAGTTYYADSVKGRFTISRDNAKNSVYLQMNSLKPEDSAVYYCAATDSYYWLYYYGYSPGNDYWGQGTQVNVSS | low polyreactivity |
| QVQLVESGGGLVQAGGSLRLSCAASGRTFAYNAMGWYRQAPGKERELVAAISSSGGSTYYADSVKGRFTISRDNAKNTVYLQMNSLKPEDTAGYYCATQGFSWAHGSDYWGQGTQVTVSS | low polyreactivity |
| QVQLVESGGGLVQAGGSLRLSCAASGNIFDIYAMGWYRQAPGKERELVAAISSGGSTYYADSVKGRFTISRDNAKNTVYFQMNSLKPEDTAVYYCAESRVGYYRYEYWGQGTQVTVSS | low polyreactivity |
| QVQLVESGGGLVQAGGSLRLSCAASGSIFGKDAMVWYRQAPGKEREFVAGIRGSGTRTYYADSVKGRFTISRDNAKNTVYLQLNSLKPEDTAVYYCNAVFGYRGPYYYWGQGTQVTVSS | high polyreactivity |
| QVQLVEAGGGLVQAGGSLRLSCAASGLTFTVYAMGWYRQAPGKERELVAAITGSGTSTYYADSVKGRFTISRDNAKNTVYLQMNSLKPEDTAVYDCAADLYYYGFFWDFGDGFDYWGQGTQVTVSS | low polyreactivity |
| QVQLVESGGGLVQAGGSLRLSCAASGYTFINYAMGWYRQAPGKERELVAAITSTGSRTYYADSVKGRFTITRDNAKNTVYLQMNSLKPEDPAVYYCAAQVDRKYRWFNSWGQGTQVNVSS | high polyreactivity |

From the nanobody polyreactivity screen of Harvey et al. (2022)
